Biological target: LGTV E protein (strain TP21) in C-prM-E–transfected HEK-293T cells (Langat virus strain TP21, UniProt Q9IG40)
Experiment: cell-based or functional assay

B1: POWV-80 mAb (antibody, V domains shown)
VH: EVKLVESEGGLVQPGSSMKVSCTASGFTFSHYYMAWVRQVPEKGLEWVANINYDGTSTYYLDSLKSRFIISRDNANNILYLQMSSLKSEDTAIYYCAREEGYGNPYPYWYFDVWGTGTTVTVSS
VL: QIVLTQSPAILSASPGEKVTMTCRASSSVSYMHWYQQKPGSSPKSWIYATSNLASGVPTRFSGSGSGTSYSLTISRVEAEDAATYYCQQRSSNPRTFGGGTKLEIK
**Q.** For B1, which “EC50 of neutralization of LGTV, FRNT in Vero cells” value is on record?
**A.** The value was 10.4 µg/mL.
